We go through one molecule from PMC10268282, “Activator-induced conformational changes regulate division-associated peptidoglycan amidases” (Proceedings of the National Academy of Sciences of the …, 2023).

This assay concerns the target T1, AmiB hydrolytic domain from Citrobacter rodentium (Citrobacter rodentium, UniProt A0A482PQR2 190-422).
T1 construct: AmiB peptidoglycan amidase, Citrobacter rodentium, hydrolytic (enzymatic) domain, cloned without the N-terminal AmiN domain; Construct limits and tags in SI Appendix; also called AmiB enzymatic domain
T1 sequence: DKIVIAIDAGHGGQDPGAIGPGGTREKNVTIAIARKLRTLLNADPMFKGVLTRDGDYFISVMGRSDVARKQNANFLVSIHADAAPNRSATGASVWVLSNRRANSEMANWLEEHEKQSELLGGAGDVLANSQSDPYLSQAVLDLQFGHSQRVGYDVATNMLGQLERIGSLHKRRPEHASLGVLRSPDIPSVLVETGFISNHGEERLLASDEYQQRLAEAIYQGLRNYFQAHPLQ
Nature of the assay: crystal structure; X-ray crystallography, 3.4 Å; molecular replacement with Alphafold models. The following applies: both partners purified.

B1: EnvC LytM domain from Citrobacter rodentium (domain or fragment)
chain: MSRTGGLGSPRGQAYWPVRGPTLHRYGEQLQGELRWKGMVIGASEGTEVKAIADGRVILADWLQGYGLVVVVEHGKGDMSLYGYNQSALVSVGTQVRAGQPIALVGSSGGQGRPSLYFEIRRQGQAVNPQPWLGR
notes: EnvC, Citrobacter rodentium, LytM domain; Construct limits and tags in SI Appendix
With B1, the binding result is “binds”.
